The values below come from publication PMC11263335.

For orientation: stoichiometry N means a count of units in the complex or per binding partner.

Test [1] deals with shrimp hemocyanin (SHC) from Litopenaeus vannamei (Litopenaeus vannamei) (UniProt Q26180). Nature of the test: SEC; purified SHC dissolved in PBS, Superdex-200 column, size by standard proteins. In general terms: In gel filtration, larger molecules generally elute earlier.
Test [2] has the same target. Briefly: SEC + other: transmission electron microscopy (uranyl acetate stain); purified SHC in PBS; Superdex-200 elution and particle diameters on a carbon-coated grid (FEI F20, 120 kV), compared with AlphaFold models of monomer and tetramer.

Substance “shrimp hemocyanin (SHC) from Litopenaeus vannamei (from UniProt Q26180 1-662) (natural protein)” gave a percent of SHC eluting between 158 and 440 kDa in test [1] of 80%. Also, the stoichiometry N in test [2] was 4.
